# Results from patent US20050106653A1.
# T1: GST fusion protein containing amino acids 449-664 of rat IRS-1 (rIRS-1 449-664), no PKC pretreatment
# T1 chain: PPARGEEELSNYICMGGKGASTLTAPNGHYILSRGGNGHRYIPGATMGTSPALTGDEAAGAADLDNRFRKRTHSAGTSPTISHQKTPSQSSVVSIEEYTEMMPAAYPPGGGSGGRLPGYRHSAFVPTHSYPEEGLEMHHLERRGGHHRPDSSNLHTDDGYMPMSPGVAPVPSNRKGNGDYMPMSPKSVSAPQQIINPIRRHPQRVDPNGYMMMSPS
# B1: recombinant human protein kinase C-ζ (protein)
# chain: MPSRTGPKMEGSGGRVRLKAHYGGDIFITSVDAATTFEELCEEVRDMCRLHQQHPLTLKWVDSEGDPCTVSSQMELEEAFRLARQCRDEGLIIHVFPSTPEQPGLPCPGEDKSIYRRGARRWRKLYRANGHLFQAKRFNRRAYCGQCSERIWGLARQGYRCINCKLLVHKRCHGLVPLTCRKHMDSVMPSQEPPVDDKNEDADLPSEETDGIAYISSSRKHDSIKDDSEDLKPVIDGMDGIKISQGLGLQDFDLIRVIGRGSYAKVLLVRLKKNDQIYAMKVVKKELVHDDEDIDWVQTEKHVFEQASSNPFLVGLHSCFQTTSRLFLVIEYVNGGDLMFHMQRQRKLPEEHARFYAAEICIALNFLHERGIIYRDLKLDNVLLDADGHIKLTDYGMCKEGLGPGDTTSTFCGTPNYIAPEILRGEEYGFSVDWWALGVLMFEMMAGRSPFDIITDNPDMNTEDYLFQVILEKPIRIPRFLSVKASHVLKGFLNKDPKERLGCRPQTGFSDIKSHAFFRSIDWDLLEKKQALPPFQPQITDDYGLDNFDTQFTSEPVQLTPDDEDAIKRIDQSEFEGFEYINPLLLSTEESV
# Experiments:
# [1] = biological target: rIRS-1 449-664 S612A GST fusion protein preincubated with PKC-ζ, then tyrosine phosphorylated by insulin receptor (rat) (UniProt P35570); assay: cell-based or functional assay
# [2] = biological target: rIRS-1 449-664 S570A GST fusion protein preincubated with PKC-ζ, then tyrosine phosphorylated by insulin receptor (rat) (UniProt P35570); assay: cell-based or functional assay
# [3] = biological target: GST fusion protein containing amino acids 449-664 of rat IRS-1 (rIRS-1 449-664), no PKC pretreatment (rat) (UniProt P35570); assay: cell-based or functional assay
# [4] = biological target: rIRS-1 449-664 GST fusion protein preincubated with PKC-ζ, then tyrosine phosphorylated by insulin receptor (rat) (UniProt P35570); assay: cell-based or functional assay
# [5] = biological target: rIRS-1 449-664 GST fusion protein preincubated with PKC from rat brain (PKC-rb), then tyrosine phosphorylated by insulin receptor (rat) (UniProt P35570); assay: cell-based or functional assay
# [6] = biological target: rIRS-1 449-664 GST fusion protein preincubated with PKC from rat brain (PKC-rb), then tyrosine phosphorylated by insulin receptor (rat) (UniProt P35570); assay: GST pull-down and immunoblot; against insulin-stimulated rIRS-1 449-664 without PKC set as 100%
# [7] = biological target: rIRS-1 449-664 S612A GST fusion protein preincubated with PKC-ζ, then tyrosine phosphorylated by insulin receptor (rat) (UniProt P35570); assay: GST pull-down and immunoblot; against the insulin-stimulated control without PKC-ζ set as 100%
# [8] = biological target: rIRS-1 449-664 S570A GST fusion protein preincubated with PKC-ζ, then tyrosine phosphorylated by insulin receptor (rat) (UniProt P35570); assay: as above
# [9] = biological target: rIRS-1 449-664 GST fusion protein preincubated with PKC-ζ, then tyrosine phosphorylated by insulin receptor (rat) (UniProt P35570); assay: GST pull-down and immunoblot; against insulin-stimulated rIRS-1 449-664 without PKC-ζ set as 100%
# [10] = biological target: regulatory p85α subunit of bovine PI 3-kinase (bovine) (UniProt P23727); assay: SPR (Biacore) competition: 100 nM p85α preincubated with soluble peptide, injected over the same peptide immobilised; two site competition fit, first value
# [11] = biological target: regulatory p85α subunit of bovine PI 3-kinase (bovine) (UniProt P23727); assay: SPR (Biacore) competition: 100 nM p85α preincubated with soluble peptide, injected over the same peptide immobilised; two site competition fit, second value
# [12] = biological target: regulatory p85α subunit of bovine PI 3-kinase (bovine) (UniProt P23727); assay: SPR competition: 100 nM p85α with soluble peptide over the same peptide immobilised
# [13] = biological target: T1, GST fusion protein containing amino …
# regulatory p85α subunit of bovine PI 3-kinase (bovine), sequence (P23727 whole entry, the tested form may be a part): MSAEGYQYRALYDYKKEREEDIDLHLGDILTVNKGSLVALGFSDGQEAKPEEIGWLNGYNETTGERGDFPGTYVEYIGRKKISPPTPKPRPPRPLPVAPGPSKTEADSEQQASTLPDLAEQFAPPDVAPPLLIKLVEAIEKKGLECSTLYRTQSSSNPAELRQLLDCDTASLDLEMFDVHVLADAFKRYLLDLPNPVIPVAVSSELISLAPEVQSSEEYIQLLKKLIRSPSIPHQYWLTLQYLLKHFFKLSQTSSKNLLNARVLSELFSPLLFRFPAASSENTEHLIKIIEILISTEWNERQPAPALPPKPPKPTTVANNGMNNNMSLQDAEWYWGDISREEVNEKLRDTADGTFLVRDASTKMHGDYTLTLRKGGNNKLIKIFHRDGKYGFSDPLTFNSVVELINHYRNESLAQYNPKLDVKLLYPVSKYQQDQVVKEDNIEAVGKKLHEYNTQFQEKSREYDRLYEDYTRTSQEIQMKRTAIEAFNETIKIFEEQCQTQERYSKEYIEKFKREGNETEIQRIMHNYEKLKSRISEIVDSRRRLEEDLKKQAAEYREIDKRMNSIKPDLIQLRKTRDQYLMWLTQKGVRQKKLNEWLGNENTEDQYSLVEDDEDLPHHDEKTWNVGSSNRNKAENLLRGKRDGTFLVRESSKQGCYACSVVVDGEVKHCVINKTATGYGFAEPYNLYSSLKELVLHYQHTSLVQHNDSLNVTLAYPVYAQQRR
molecule,measurement,setting,value
"insulin receptor, WGA-purified from rat liver, insulin-stimulated and autophosphorylated (from UniProt P15127 27-1383)",reduction of tyrosine phosphorylation by IR after PKC-ζ pretreatment,[1],30 to 40%
same,reduction of tyrosine phosphorylation by IR after PKC-ζ pretreatment,[2],30 to 40%
same,"insulin-stimulated tyrosine phosphorylation of rIRS-1^449-664, fold over basal",[3],8.8 fold
same,inhibition of tyrosine phosphorylation,[4],46%
same,reduction of tyrosine phosphorylation by IR after PKC-ζ pretreatment,[4],30 to 40%
same,reduction of insulin-stimulated tyrosine phosphorylation,[5],27%
regulatory p85α subunit of bovine PI 3-kinase (from UniProt P23727 1-724),inhibition of the association of p85α,[6],49%
same,"p85α binding, % of control",[7],28 % of control
same,"p85α binding, % of control",[8],43 % of control
same,inhibition of p85α binding,[9],81%
"IRS-1 peptide pY608 (DDGpYMPMSPGV), amino acids 605 to 615 of rat IRS-1 with phosphotyrosine 608",IC50,[10],260 nM
same,IC50,[11],16600 nM
same,peptide concentration for complete inhibition,[12],10 µM
"IRS-1 peptide pY608-pS612 (DDGpYMPMpSPGV), amino acids 605 to 615 of rat IRS-1 with phosphotyrosine 608 and phosphoserine 612",IC50,[10],150 nM
same,IC50,[11],2880 nM
same,peptide concentration for complete inhibition,[12],10 µM
B1,"32P incorporation, SDS-PAGE and autoradiography",[13],a prominent phosphorylation of rIRS-1^449-664 by PKC became detectable
same,phosphopeptide mapping by HPLC of wild type and S570A,[13],serine 570 of IRS-1 is a novel phosphorylation site targeted by PKC-ζ
